This note sets out measurements from publication PMC2173332.

The target in assay [1] is acyl-CoA oxidase isoform Aox1p (Yarrowia lipolytica). Put plainly: co-IP.
Assay [2] has the same target. Nature of the assay: co-IP. The source holds these as a separate data set.

Where two headings read alike, the source gives them in different places.

With acyl-CoA oxidase isoform Aox4p (enzyme), the stoichiometry N in assay [1] and in assay [2] was 1 in each case.
acyl-CoA oxidase isoform Aox5p (enzyme): the stoichiometry N in assay [1] and in assay [2] was 1 throughout.
In the case of acyl-CoA oxidase isoform Aox3p (enzyme), the stoichiometry N in assay [1] and in assay [2] was 1 each time.
On to acyl-CoA oxidase isoform Aox2p (enzyme), for which the stoichiometry N in assay [1] and in assay [2] was 1 each time.
